Biological target: the molecule itself
Assay: FRET or BRET; FC-FRET: flow cytometry, sensitized emission (three-cube N_FRET, apparent FRET efficiency) in live transiently cotransfected HEK293T cells suspended in PBS; donor EGFP, acceptor mCherry; population means and dependence on expression level compared with unlinked mCh + eG

Protein | N_FRET (mean apparent FRET efficiency) [%]
human NRL with mCherry or EGFP fused to the N-terminus (near the activation domain) (natural protein, NRL, human, neural retina-specific leucine zipper protein; coding region cloned in derivatives of pEGFP-N1 with an NLS and a linker to EGFP or mCherry; mNRL (mCherry, acceptor) and eNRL (EGFP, donor) differ only in the fluorophore and are written as one molecule; The discussion speaks of (Gly)5 linkers between the fluorophores and NRL; also called mNRL; eNRL; source: HEK293T, transiently …) not shown | 2.5
human CRX with mCherry or EGFP fused to the N-terminus (near the homeodomain) (natural protein, CRX, human, cone-rod homeobox protein; coding region cloned in derivatives of pEGFP-N1 with an NLS and a linker to EGFP or mCherry; mCRX (mCherry, acceptor) and eCRX (EGFP, donor) differ only in the fluorophore and are written as one molecule; mCRX + eCRX is a row of m1 with itself; also called mCRX; eCRX; source: HEK293T, transiently transfected, in live cells (fixed cells for acceptor …)) not shown | 3.3

Source: paper PMC9050680, “Interaction of human CRX and NRL in live HEK293T cells measured using fluorescence resonance energy transfer (FRET)” (Scientific Reports, 2022)
